Assay results taken from paper PMC10921949, “Multivalent coiled-coil interactions enable full-scale centrosome assembly and strength” (The Journal of Cell Biology, 2024).

B1: SPD-5(541–677) (domain or fragment, C. elegans, UniProt P91349 541-677, looked up)
chain: SQSHIPILHDMQQILDSSAMFLEGQHDVAVNVEQMQEKMSQIREALARLFERLKSSAALFEEILERMGSSDPNADKIKKMKLAFETSINDKLNVSAILEAAEKDLHNMSLNFSILEKSIVSQAAEASRRFTIAPDAE
notes: Used alone and after incubation with kinase-dead PLK-1 (unphosphorylated); also called helical hairpin; source: Arctic Express bacteria, purified (Ni-NTA, Superdex 75 size exclusion)
B2: SPD-5(541–677) R592K (domain or fragment, C. elegans, UniProt P91349 541-677, looked up)
chain: SQSHIPILHDMQQILDSSAMFLEGQHDVAVNVEQMQEKMSQIREALARLFEKLKSSAALFEEILERMGSSDPNADKIKKMKLAFETSINDKLNVSAILEAAEKDLHNMSLNFSILEKSIVSQAAEASRRFTIAPDAE
notes: source: purified
B3: SPD-5(541–677) phosphorylated by PLK-1(CA) (domain or fragment, C. elegans, UniProt P91349 541-677, looked up)
chain: SQSHIPILHDMQQILDSSAMFLEGQHDVAVNVEQMQEKMSQIREALARLFERLKSSAALFEEILERMGSSDPNADKIKKMKLAFETSINDKLNVSAILEAAEKDLHNMSLNFSILEKSIVSQAAEASRRFTIAPDAE
modifications: phosphorylated by PLK-1 (verified by gel migration shift and MS); sites of this sample not listed in the text
notes: also called phosphorylated hairpin; source: Arctic Express bacteria, purified (Ni-NTA, Superdex 75 size exclusion); then incubated with PLK-1(CA)

Target: the molecule itself
Test: mass photometry; 50 nM SPD-5(541–677) in PBS on a glass coverslip (TwoMP, Refeyn), alone or after 20 min with 20 nM PLK-1(KD) or PLK-1(CA); dimers seen down to 10 nM

Stoichiometry N, 2:
B1, B2, B3
